From IntAct's records for PubMed 26053850

B1: ADP-ribosylation factor-binding protein GGA1 (Homo sapiens), Q9UJY5 (parent)
chain: MEPAMEPETLEARINRATNPLNKELDWASINGFCEQLNEDFEGPPLATRLLAHKIQSPQEWEAIQALTVLETCMKSCGKRFHDEVGKFRFLNELIKVVSPKYLGSRTSEKVKNKILELLYSWTVGLPEEVKIAEAYQMLKKQGIVKSDPKLPDDTTFPLPPPRPKNVIFEDEEKSKMLARLLKSSHPEDLRAANKLIKEMVQEDQKRMEKISKRVNAIEEVNNNVKLLTEMVMSHSQGGAAAGSSEDLMKELYQRCERMRPTLFRLASDTEDNDEALAEILQANDNLTQVINLYKQLVRGEEVNGDATAGSIPGSTSALLDLSGLDLPPAGTTYPAMPTRPGEQASPEQPSASVSLLDDELMSLGLSDPTPPSGPSLDGTGWNSFQSSDATEPPAPALAQAPSMESRPPAQTSLPASSGLDDLDLLGKTLLQQSLPPESQQVRWEKQQPTPRLTLRDLQNKSSSCSSPSSSATSLLHTVSPEPPRPPQQPVPTELSLASITVPLESIKPSNILPVTVYDQHGFRILFHFARDPLPGRSDVLVVVVSMLSTAPQPIRNIVFQSAVPKVMKVKLQPPSGTELPAFNPIVHPSAITQVLLLANPQKEKVRLRYKLTFTMGDQTYNEMGDVDQFPPPETWGSL

Variants of: B1
Conditions: with bace1_human BACE1, P56817
Chain of bace1_human BACE1, P56817 (P56817 whole entry): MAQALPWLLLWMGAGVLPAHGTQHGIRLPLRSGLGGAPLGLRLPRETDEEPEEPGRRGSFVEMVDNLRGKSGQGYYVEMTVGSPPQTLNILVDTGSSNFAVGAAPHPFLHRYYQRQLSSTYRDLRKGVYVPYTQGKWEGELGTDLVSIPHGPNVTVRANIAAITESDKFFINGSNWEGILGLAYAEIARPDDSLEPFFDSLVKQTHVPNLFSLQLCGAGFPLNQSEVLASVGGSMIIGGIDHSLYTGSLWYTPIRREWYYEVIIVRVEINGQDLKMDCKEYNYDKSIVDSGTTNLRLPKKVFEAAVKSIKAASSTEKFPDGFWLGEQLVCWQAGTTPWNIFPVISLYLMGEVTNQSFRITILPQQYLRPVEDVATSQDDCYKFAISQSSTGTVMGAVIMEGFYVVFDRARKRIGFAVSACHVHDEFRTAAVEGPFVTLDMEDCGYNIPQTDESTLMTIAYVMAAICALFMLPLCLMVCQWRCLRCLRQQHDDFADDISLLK

| effect of a mutation on the interaction | Variant |
| --- | --- |
| with no effect | S355D |
| with no effect | S355A |
